Target: spike protein of SARS-CoV (SARS-CoV, UniProt P59594 14-1255)
Experiment: cell-based or functional assay

B1: 4-66 antibody (antibody, V domains shown)
VH: EVQLVESGGGLVQPGGSLRLSCAASGIIVSRNYMTWVRQAPGKGLEWVSVIYSGGTTYYADSVKGRFTTSRDDSKNTLYLQMNSLRGDDTAVYYCARDPPHRRGSYWGQGTLVTVSS
VL: DILMTQSPSSLSASVGDRVTITCQASQDINKYLNWYQQKPGKAPKLLIYDASNLETGVPSRFSGSGSGTDFSFTISSLQPEDVATYYCQQSDNLPPTFGQGTNVEIK
B1 was tested. Which “IC50, neutralization” value did it give?
The value was 0.55 µg/mL.

Source: patent US20260139035A1 (NATIONAL UNIVERSITY CORPORATION KUMAMOTO UNIVERSITY, published 2026)
